Experimental data: patent US20090042291A1 (published 2009)
Blank lines part the entries; values can stand above or below the binder they belong to.

Columns and labels:
[1] = biological target: S267E/N325L; experiment: Biacore
[2] = biological target: A327Q; experiment: Biacore
[3] = biological target: H268D; experiment: Biacore
[4] = biological target: A327G; experiment: Biacore
[5] = biological target: H268N; experiment: Biacore
[6] = biological target: H268E; experiment: Biacore
[7] = biological target: H268Q; experiment: Biacore
[8] = biological target: L328F; experiment: Biacore
[9] = biological target: A327N; experiment: Biacore
[10] = biological target: P329E; experiment: Biacore
[11] = biological target: A327D; experiment: Biacore
[12] = biological target: S267E/L328Y; experiment: Biacore
[13] = biological target: S298D; experiment: Biacore
[14] = biological target: T1, FcγRIIb (human, UniProt P31994 46-217); experiment: Biacore
T1 chain: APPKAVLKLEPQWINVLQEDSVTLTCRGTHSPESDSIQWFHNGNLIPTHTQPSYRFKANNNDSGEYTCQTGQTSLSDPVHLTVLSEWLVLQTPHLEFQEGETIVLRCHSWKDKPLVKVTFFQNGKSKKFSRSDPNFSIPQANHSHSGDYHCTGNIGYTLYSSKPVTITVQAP

[15] = biological target: T2, FcγRI (human, UniProt P12314 16-288); experiment: Biacore
T2 chain: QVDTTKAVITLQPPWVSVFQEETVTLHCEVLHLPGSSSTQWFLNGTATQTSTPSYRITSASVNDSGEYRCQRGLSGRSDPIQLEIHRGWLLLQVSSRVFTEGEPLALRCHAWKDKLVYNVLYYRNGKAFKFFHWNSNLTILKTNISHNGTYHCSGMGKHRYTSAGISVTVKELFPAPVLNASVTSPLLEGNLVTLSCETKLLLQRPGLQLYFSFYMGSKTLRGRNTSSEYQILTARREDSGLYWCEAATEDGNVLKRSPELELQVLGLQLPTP

[16] = biological target: human V158 FcγRIIIa, extracellular region with C-terminal 6xHis-tag and GST-tag (human, UniProt P08637 17-208); experiment: AlphaScreen competition

B1: FcγRIIaR (receptor)
chain: QAAAPPKAVLKLEPPWINVLQEDSVTLTCQGARSPESDSIQWFHNGNLIPTHTQPSYRFKANNNDSGEYTCQTGQTSLSDPVHLTVLSEWLVLQTPHLEFQEGETIMLRCHSWKDKPLVKVTFFQNGKSQKFSRLDPTFSIPQANHSHSGDYHCTGNIGYTLFSSKPVTITVQVPSMGSSSPMG
- Kd [1]: 20.7 nM
- Kd [2]: 1350 nM
- Kd [3]: 205 nM
- Kd [4]: 2690 nM
- Kd [5]: 481 nM
- Kd [6]: 269 nM
- Kd [7]: 544 nM
- Kd [8]: 166 nM
- Kd [9]: 1410 nM
- Kd [10]: 10000 nM
- Kd [11]: 536 nM
- Kd [12]: 7.06 nM
- Kd [13]: 592 nM

B2: S267G (antibody)
chain 1: not shown
chain 2: DIVMTQSPATLSLSPGERATLSCRSSKSLQNVNGNTYLYWFQQKPGQSPQLLIYRMSNLNSGVPDRFSGSGSGTEFTLTISSLEPEDFAVYYCMQHLEYPITFGAGTKLEIKRTVAAPSVFIFPPSDEQLKSGTASVVCLLNNFYPREAKVQWKVDNALQSGNSQESVTEQDSKDSTYSLSSTLTLSKADYEKHKVYACEVTHQGLSSPVTKSFNRGEC
- Kd [14]: 1450 nM
- Kd [15]: 0.626 nM

Second part, the binder after the results:

- IC50 [16]: 4.6 nM
B3: alemtuzumab, wild type, expressed in 293T cells (antibody)
chain 1: not shown
chain 2: not shown

- IC50 [16]: 0.4 nM
B4: alemtuzumab S239D (antibody)
chain 1: not shown
chain 2: not shown
